Experimental data published in publication doi:10.1101/151043 (bioRxiv, 2017).

Assays:
mouse serum albumin = mouse serum albumin (Mus musculus, UniProt P07724, EZ-Link NHS-PEG4-Biotin labelled); assay: SPR
[1] = target: recombinant human serum albumin from S. cerevisiae, biotin labelled (Homo sapiens, UniProt P02768, EZ-Link NHS-PEG4-Biotin labelled); assay: SPR
Sequence of recombinant human serum albumin from S. cerevisiae, biotin labelled (P02768 25-609): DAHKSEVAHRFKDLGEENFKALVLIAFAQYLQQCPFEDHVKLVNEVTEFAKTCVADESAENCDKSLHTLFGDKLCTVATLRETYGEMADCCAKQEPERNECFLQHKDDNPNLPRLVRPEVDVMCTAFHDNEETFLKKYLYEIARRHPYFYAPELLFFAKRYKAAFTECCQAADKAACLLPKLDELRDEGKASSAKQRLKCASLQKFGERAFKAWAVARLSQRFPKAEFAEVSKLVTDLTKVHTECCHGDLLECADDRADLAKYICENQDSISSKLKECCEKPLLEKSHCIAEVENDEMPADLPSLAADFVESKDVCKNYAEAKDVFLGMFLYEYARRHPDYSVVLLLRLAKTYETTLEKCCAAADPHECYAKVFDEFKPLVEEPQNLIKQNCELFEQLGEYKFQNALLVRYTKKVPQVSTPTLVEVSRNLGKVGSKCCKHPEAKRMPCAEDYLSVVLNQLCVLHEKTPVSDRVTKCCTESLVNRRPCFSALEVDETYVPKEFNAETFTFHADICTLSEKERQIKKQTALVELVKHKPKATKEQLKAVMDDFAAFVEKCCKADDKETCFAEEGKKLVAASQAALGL

Sequence of mouse serum albumin (P07724 25-608): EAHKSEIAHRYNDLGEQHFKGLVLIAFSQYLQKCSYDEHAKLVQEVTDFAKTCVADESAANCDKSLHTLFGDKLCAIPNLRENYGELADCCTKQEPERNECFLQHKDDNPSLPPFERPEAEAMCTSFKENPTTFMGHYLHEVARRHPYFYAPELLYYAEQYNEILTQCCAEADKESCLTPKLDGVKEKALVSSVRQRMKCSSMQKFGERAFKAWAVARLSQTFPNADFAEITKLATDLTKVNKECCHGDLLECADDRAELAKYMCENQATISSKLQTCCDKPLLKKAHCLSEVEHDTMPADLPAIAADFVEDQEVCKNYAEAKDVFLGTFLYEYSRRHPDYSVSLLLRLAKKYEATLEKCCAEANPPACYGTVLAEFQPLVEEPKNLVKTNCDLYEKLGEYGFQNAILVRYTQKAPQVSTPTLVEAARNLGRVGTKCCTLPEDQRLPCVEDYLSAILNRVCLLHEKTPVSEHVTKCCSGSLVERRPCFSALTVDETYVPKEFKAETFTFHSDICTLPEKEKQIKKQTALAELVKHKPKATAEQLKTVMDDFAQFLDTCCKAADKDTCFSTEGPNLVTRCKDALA

binding result (mouse serum albumin): no binding
Kd [1]: 430 nM
B1: Nb.b201 (VHH)
VHH: QVQLQESGGGLVQAGGSLRLSCAASGYISDAYYMGWYRQAPGKEREFVATITHGTNTYYADSVKGRFTISRDNAKNTVYLQMNSLKPEDTAVYYCAVLETRSYSFRYWGQGTQVTVSS
